Values of other authors as cited in publication PMC4298871.

Target: M6P/IGF-IIR (Homo sapiens) (UniProt P11717)
Test: SPR

UniProt P11717, sequence (P11717 41-2491): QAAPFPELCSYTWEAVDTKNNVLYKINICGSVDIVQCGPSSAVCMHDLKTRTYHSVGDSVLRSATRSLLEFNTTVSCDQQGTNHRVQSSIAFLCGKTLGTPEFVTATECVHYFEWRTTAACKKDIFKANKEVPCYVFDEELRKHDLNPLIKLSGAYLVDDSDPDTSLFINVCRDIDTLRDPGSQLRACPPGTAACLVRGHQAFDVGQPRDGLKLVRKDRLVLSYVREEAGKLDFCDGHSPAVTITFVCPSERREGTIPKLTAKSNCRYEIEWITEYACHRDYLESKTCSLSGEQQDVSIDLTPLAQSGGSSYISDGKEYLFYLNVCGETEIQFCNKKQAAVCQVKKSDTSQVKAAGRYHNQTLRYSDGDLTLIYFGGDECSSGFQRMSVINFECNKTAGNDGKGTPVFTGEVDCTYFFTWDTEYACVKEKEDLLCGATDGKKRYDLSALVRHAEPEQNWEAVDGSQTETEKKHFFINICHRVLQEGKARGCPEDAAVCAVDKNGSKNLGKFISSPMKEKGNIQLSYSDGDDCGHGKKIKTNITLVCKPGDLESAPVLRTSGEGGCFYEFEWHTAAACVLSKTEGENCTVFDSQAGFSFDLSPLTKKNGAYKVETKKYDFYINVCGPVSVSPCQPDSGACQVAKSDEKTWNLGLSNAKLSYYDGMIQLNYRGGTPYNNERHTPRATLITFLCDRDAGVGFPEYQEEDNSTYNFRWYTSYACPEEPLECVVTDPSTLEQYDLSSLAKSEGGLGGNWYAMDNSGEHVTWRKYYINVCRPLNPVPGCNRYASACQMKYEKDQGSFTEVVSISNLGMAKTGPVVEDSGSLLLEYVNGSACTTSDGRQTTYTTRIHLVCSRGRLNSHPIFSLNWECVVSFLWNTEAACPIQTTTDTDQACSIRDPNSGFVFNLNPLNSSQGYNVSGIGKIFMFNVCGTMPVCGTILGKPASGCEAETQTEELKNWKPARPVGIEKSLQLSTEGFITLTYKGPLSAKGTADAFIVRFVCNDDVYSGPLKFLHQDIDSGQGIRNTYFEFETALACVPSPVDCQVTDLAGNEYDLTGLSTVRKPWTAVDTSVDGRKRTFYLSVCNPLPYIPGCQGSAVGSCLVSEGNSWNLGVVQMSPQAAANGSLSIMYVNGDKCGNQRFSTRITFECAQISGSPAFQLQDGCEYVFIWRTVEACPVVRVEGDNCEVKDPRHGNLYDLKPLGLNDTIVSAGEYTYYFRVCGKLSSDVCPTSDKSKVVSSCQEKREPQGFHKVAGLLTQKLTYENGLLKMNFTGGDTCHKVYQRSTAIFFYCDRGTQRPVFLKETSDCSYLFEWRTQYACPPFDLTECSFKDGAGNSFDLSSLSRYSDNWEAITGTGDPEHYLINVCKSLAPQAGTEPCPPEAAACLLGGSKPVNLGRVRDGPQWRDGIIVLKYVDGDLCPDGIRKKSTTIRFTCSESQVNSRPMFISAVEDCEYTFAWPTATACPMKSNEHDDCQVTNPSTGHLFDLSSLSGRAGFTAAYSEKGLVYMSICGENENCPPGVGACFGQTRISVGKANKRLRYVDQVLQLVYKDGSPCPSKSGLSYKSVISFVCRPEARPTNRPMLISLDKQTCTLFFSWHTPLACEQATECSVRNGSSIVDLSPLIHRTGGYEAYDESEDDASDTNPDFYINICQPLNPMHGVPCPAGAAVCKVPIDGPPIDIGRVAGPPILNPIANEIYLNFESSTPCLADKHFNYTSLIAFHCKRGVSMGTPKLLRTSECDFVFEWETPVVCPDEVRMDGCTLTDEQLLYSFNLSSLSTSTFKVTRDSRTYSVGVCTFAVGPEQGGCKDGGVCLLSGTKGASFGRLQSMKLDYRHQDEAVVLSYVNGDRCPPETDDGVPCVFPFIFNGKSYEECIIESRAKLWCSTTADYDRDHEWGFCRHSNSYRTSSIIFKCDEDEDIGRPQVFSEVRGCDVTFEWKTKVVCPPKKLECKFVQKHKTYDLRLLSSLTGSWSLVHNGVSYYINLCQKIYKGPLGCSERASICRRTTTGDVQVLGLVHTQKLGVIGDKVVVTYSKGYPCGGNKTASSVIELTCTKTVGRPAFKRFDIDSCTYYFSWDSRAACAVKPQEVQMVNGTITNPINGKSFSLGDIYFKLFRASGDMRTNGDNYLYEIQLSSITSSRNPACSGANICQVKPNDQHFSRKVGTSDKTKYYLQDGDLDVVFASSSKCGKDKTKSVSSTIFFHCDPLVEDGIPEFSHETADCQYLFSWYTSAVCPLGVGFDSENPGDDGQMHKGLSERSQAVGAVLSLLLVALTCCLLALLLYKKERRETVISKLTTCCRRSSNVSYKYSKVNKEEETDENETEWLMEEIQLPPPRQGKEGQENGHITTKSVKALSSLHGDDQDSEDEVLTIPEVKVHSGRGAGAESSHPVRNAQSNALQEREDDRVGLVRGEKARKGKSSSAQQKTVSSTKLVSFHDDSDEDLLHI

**Q.** With DPP-4 (from UniProt P27487) as the substance, how does the Kd read?
**A.** 35.9 µM
